From paper PMC3156282 (Bioorganic & medicinal chemistry letters, 2011)
Numbered stars: 1 amine (or outer) side, 2 acyl side, 3 side chain; on linkers, the order of the positions; unused ones are H or OH. Square brackets hold non-standard residues; d marks the D form. Side chains are listed from the residue outwards. 4‑DMNA = 4-N,N-dimethylamino-1,8-naphthalimido-alanine, CN(C)c1ccc2c3c(cccc13)C(=O)N(C[C@H](N[*:1])C(=O)[*:2])C2=O; 4‑DMN = 4-DMN: an environment-sensitive fluorophore; 9‑Å linker = not defined here

Target: Cdc42 (UniProt P60953 1-191)
Test: other fluorescence titration

Sequence of Cdc42 (P60953 whole entry): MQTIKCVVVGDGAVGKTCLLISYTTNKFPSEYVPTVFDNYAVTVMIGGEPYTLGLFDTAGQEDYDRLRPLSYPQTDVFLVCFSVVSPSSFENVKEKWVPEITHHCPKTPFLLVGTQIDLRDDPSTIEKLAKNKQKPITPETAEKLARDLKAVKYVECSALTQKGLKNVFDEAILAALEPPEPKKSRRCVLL

| Kd | Binder |
| --- | --- |
| 341 ± 22 nM | GB1-KKKISKADIGAPSGFKHVSHVGWDPQNGFDVNNLDPDLRSLC([9‑Å linker-4‑DMN])SRAGIS-His6 (domain or fragment, UniProt P42768 230-277, looked up, not fully specified; reading uncertain) [4-DMN sensor 3 (GB1-WASP(230–277)-His6, Phe271Cys, Cys271 labeled with 4-DMN through a 9-Å linker)] |
| 385 ± 9 nM | GB1-KKKISKADIGAPSGFKHVSHVGWDPQNGFDVNNLDPDLRCL[4‑DMNA]SRAGIS-His6 (domain or fragment) |
